Binding signal data for 42 molecules are collected here from PMC11417369, “DNA sequence and chromatin differentiate sequence-specific transcription factor binding in the human malaria parasite Plasmodium falciparum”.

The labels stand for the following.
B1: GTGCAC_negctrl_site662 (dsDNA)
DNA 1: TTTTAATGAAATATCAAAAAAATTTATGATTTCAAA
DNA 2: TTTGAAATCATAAATTTTTTTGATATTTCATTAAAA
B2: GTGCAC_site10493 (dsDNA)
DNA 1: AAAGGATTTATACTAGTGCAAAAATATAAAAATATA
DNA 2: TATATTTTTATATTTTTGCACTAGTATAAATCCTTT
B3: GTGCAC_site9771 (dsDNA)
DNA 1: GTACGTTTCTCCAGACTGCACTATACGACTCGTACA
DNA 2: TGTACGAGTCGTATAGTGCAGTCTGGAGAAACGTAC
B4: GTGCAC_negctrl_site256 (dsDNA)
DNA 1: AATGATTTTAAATGAACATAATTTATATTCATAACA
DNA 2: TGTTATGAATATAAATTATGTTCATTTAAAATCATT
B5: GTGCAC_negctrl_site156 (dsDNA)
DNA 1: TAACTTTTTTTTTTTTTTTTTTAACTTTTATGTAAT
DNA 2: ATTACATAAAAGTTAAAAAAAAAAAAAAAAAAGTTA
B6: GTGCAC_negctrl_site664 (dsDNA)
DNA 1: AAAAAAAAAAAGATAAATACAAGTTACACAAAAAAA
DNA 2: TTTTTTTGTGTAACTTGTATTTATCTTTTTTTTTTT
B7: GTGCAC_negctrl_site558 (dsDNA)
DNA 1: AAATAATATATTCTATATAATAAATTATAAATATAA
DNA 2: TTATATTTATAATTTATTATATAGAATATATTATTT
B8: GTGCAC_site9560 (dsDNA)
DNA 1: ATACATCGTATATAAGTGCATATTAAGGTCTTAAGA
DNA 2: TCTTAAGACCTTAATATGCACTTATATACGATGTAT
B9: GTGCAC_negctrl_site161 (dsDNA)
DNA 1: AGAAAAAAAAAAAAAAATAAAAAAATAAATAAATAA
DNA 2: TTATTTATTTATTTTTTTATTTTTTTTTTTTTTTCT
B10: GTGCAC_site10457 (dsDNA)
DNA 1: TACAATATATTTATAGTGCATATTACTTTTAACTTT
DNA 2: AAAGTTAAAAGTAATATGCACTATAAATATATTGTA
B11: GTGCAC_site10208 (dsDNA)
DNA 1: TTTTGTTATTAGAGGGTGCTTATAATGAACTCCTAC
DNA 2: GTAGGAGTTCATTATAAGCACCCTCTAATAACAAAA
B12: GTGCAC_site10475 (dsDNA)
DNA 1: TAATGTTCCTATATAGTGCAATTATGTTTTATTTCT
DNA 2: AGAAATAAAACATAATTGCACTATATAGGAACATTA
B13: GTGCAC_site10541 (dsDNA)
DNA 1: TTCAAATAAATAGTAGTGCATATTTATTAATGTAAA
DNA 2: TTTACATTAATAAATATGCACTACTATTTATTTGAA
B14: GTGCAC_site9816 (dsDNA)
DNA 1: AAGACATTTTTTAAGGTGCTTTGGAAAAAGGAGTAT
DNA 2: ATACTCCTTTTTCCAAAGCACCTTAAAAAATGTCTT
B15: GTGCAC_site10006 (dsDNA)
DNA 1: ATATATTAACAAAAGGTGCTTTTGGCAAAGTATAAT
DNA 2: ATTATACTTTGCCAAAAGCACCTTTTGTTAATATAT
B16: GTGCAC_negctrl_site587 (dsDNA)
DNA 1: AAAAAAATAAAATTATATAAAATAAATTTTTATAAT
DNA 2: ATTATAAAAATTTATTTTATATAATTTTATTTTTTT
B17: GTGCAC_negctrl_site37 (dsDNA)
DNA 1: AATAAATAAATAAATTAATAAATTAATAAATTAATA
DNA 2: TATTAATTTATTAATTTATTAATTTATTTATTTATT
B18: GTGCAC_site10715 (dsDNA)
DNA 1: TTTTTGTAACCGATTCTGCACTGAGAAGCACATATA
DNA 2: TATATGTGCTTCTCAGTGCAGAATCGGTTACAAAAA
B19: GTGCAC_negctrl_site139 (dsDNA)
DNA 1: TGATGAAAATCTACATGAATGTTTTTATATCTATAT
DNA 2: ATATAGATATAAAAACATTCATGTAGATTTTCATCA
B20: GTGCAC_negctrl_site193 (dsDNA)
DNA 1: GCATATATTATATATTTATTTATTTTTTTTTTTTAA
DNA 2: TTAAAAAAAAAAAATAAATAAATATATAATATATGC
B21: GTGCAC_site10497 (dsDNA)
DNA 1: AAAAAAAAAAAATGTGTGCACATTATTTCAACTTAA
DNA 2: TTAAGTTGAAATAATGTGCACACATTTTTTTTTTTT
B22: GTGCAC_negctrl_site123 (dsDNA)
DNA 1: TCCTTAAAAATCTAAAAAGAAAAAAACATATATTTT
DNA 2: AAAATATATGTTTTTTTCTTTTTAGATTTTTAAGGA
B23: GTGCAC_site10708 (dsDNA)
DNA 1: TTCTAAAATTATATAGTGCAATTATATTAATTTTTC
DNA 2: GAAAAATTAATATAATTGCACTATATAATTTTAGAA
B24: GTGCAC_negctrl_site185 (dsDNA)
DNA 1: AAAAGAAAAATGTCATATGATATCATATATTTTATA
DNA 2: TATAAAATATATGATATCATATGACATTTTTCTTTT
B25: GTGCAC_negctrl_site286 (dsDNA)
DNA 1: TCCTATCATTTATATTTTACTACATAATATTGATAA
DNA 2: TTATCAATATTATGTAGTAAAATATAAATGATAGGA
B26: GTGCAC_negctrl_site473 (dsDNA)
DNA 1: GGGTCAAGTAAGCTGTTCCTCTTTTTCTTTCTCACT
DNA 2: AGTGAGAAAGAAAAAGAGGAACAGCTTACTTGACCC
B27: GTGCAC_site10046 (dsDNA)
DNA 1: TTTTTGTTATATAAAGTGCAGTGACAAGCAGTTTAA
DNA 2: TTAAACTGCTTGTCACTGCACTTTATATAACAAAAA
B28: GTGCAC_site10402 (dsDNA)
DNA 1: TTACACATGTATTTGGTGCATGTTGTTAACAAAATA
DNA 2: TATTTTGTTAACAACATGCACCAAATACATGTGTAA
B29: GTGCAC_negctrl_site643 (dsDNA)
DNA 1: TGTAGTCATTAGTCAAATTAGAATTAAATATATATT
DNA 2: AATATATATTTAATTCTAATTTGACTAATGACTACA
B30: GTGCAC_site9756 (dsDNA)
DNA 1: TACTTATTTAAAATAGTGCATGAATAGAAGATATAT
DNA 2: ATATATCTTCTATTCATGCACTATTTTAAATAAGTA
B31: GTGCAC_site10283 (dsDNA)
DNA 1: AAAATAATTTTATAAGTGCAAAATAGCTTATTTATA
DNA 2: TATAAATAAGCTATTTTGCACTTATAAAATTATTTT
B32: GTGCAC_negctrl_site309 (dsDNA)
DNA 1: AATGATGTTGTATTGTTTCGATATAACATCTAATTT
DNA 2: AAATTAGATGTTATATCGAAACAATACAACATCATT
B33: GTGCAC_site10325 (dsDNA)
DNA 1: TATATACATGTGAGAGTGCATATAGACATAAAAAAT
DNA 2: ATTTTTTATGTCTATATGCACTCTCACATGTATATA
B34: GTGCAC_negctrl_site307 (dsDNA)
DNA 1: AATAATAAACACAATCAAATAAAATATGAAATATAA
DNA 2: TTATATTTCATATTTTATTTGATTGTGTTTATTATT
B35: GTGCAC_site9563 (dsDNA)
DNA 1: AAAATAATCTTTTGATTGCACTGTTACATTTTTTCT
DNA 2: AGAAAAAATGTAACAGTGCAATCAAAAGATTATTTT
B36: GTGCAC_site10554 (dsDNA)
DNA 1: TATATATATATATGAGTGCATATGTGTAATATAAAA
DNA 2: TTTTATATTACACATATGCACTCATATATATATATA
B37: GTGCAC_negctrl_site234 (dsDNA)
DNA 1: GACAAAAAATTAAAATAAAATAATAATATAATAAAA
DNA 2: TTTTATTATATTATTATTTTATTTTAATTTTTTGTC
B38: GTGCAC_site9973 (dsDNA)
DNA 1: AATTAAAAGTGAAGAGTGCATAGAATTTTTTACTTT
DNA 2: AAAGTAAAAAATTCTATGCACTCTTCACTTTTAATT
B39: GTGCAC_negctrl_site345 (dsDNA)
DNA 1: TTTTTCTATATTTTCTTTTATAAAATATATAATTTT
DNA 2: AAAATTATATATTTTATAAAAGAAAATATAGAAAAA
B40: GTGCAC_site9599 (dsDNA)
DNA 1: TTATATGTATATATAGTGCAGAACAAAAGATTATAT
DNA 2: ATATAATCTTTTGTTCTGCACTATATATACATATAA
B41: GTGCAC_negctrl_site531 (dsDNA)
DNA 1: AAATAAATTAAAATAAATTAAATTAAATTAGCATTA
DNA 2: TAATGCTAATTTAATTTAATTTATTTTAATTTATTT
B42: GTGCAC_site10627 (dsDNA)
DNA 1: TTAAGATACAAAAAAGTGCATATTTTTTAACAAAAA
DNA 2: TTTTTGTTAAAAAATATGCACTTTTTTGTATCTTAA

The target of the data set is AP2-I D3 (Plasmodium falciparum, UniProt Q8IJW6 910-1027). As to the kind of experiment: gcPBM; about 25 ug protein; PBS, 1% milk, 0.2 mg/ml BSA, salmon testes DNA, 0.03% Triton X-100. As to conditions: tags: N-terminal GST (pGEX-4T-1), kept; label: surface-attached array probe.
Consider B1, for which the binding signal is 6.64 ln median PBM intensity, better of two orientations.

B2: the binding signal is 9.74 ln median PBM intensity, better of two orientations.

Regarding B3, the binding signal was 9.61 ln median PBM intensity, better of two orientations.

Turning to B4, the binding signal was 6.86 ln median PBM intensity, better of two orientations.

As for B5, the binding signal is 6.93 ln median PBM intensity, better of two orientations.

Turning to B6, the binding signal is 6.94 ln median PBM intensity, better of two orientations.

As to B7, the binding signal is 6.74 ln median PBM intensity, better of two orientations.

Turning to B8, the binding signal is 9.59 ln median PBM intensity, better of two orientations.

Regarding B9, the binding signal was 6.87 ln median PBM intensity, better of two orientations.

For the molecule B10, the binding signal was 9.8 ln median PBM intensity, better of two orientations.

B11: the binding signal was 9.87 ln median PBM intensity, better of two orientations.

For B12, the binding signal is 9.98 ln median PBM intensity, better of two orientations.

As for B13, the binding signal was 9.69 ln median PBM intensity, better of two orientations.

With B14, the binding signal was 9.5 ln median PBM intensity, better of two orientations.

As for B15, the binding signal is 9.45 ln median PBM intensity, better of two orientations.

As to B16, the binding signal is 6.82 ln median PBM intensity, better of two orientations.

For the molecule B17, the binding signal is 6.84 ln median PBM intensity, better of two orientations.

Take B18: the binding signal is 9.57 ln median PBM intensity, better of two orientations.

B19: the binding signal is 6.88 ln median PBM intensity, better of two orientations.

With B20, the binding signal was 6.96 ln median PBM intensity, better of two orientations.

For the molecule B21, the binding signal was 9.36 ln median PBM intensity, better of two orientations.

Consider B22, for which the binding signal is 6.9 ln median PBM intensity, better of two orientations.

Consider B23, for which the binding signal was 9.54 ln median PBM intensity, better of two orientations.

For the molecule B24, the binding signal is 6.79 ln median PBM intensity, better of two orientations.

On to B25, for which the binding signal was 6.95 ln median PBM intensity, better of two orientations.

Take B26: the binding signal was 6.97 ln median PBM intensity, better of two orientations.

Consider B27, for which the binding signal was 9.65 ln median PBM intensity, better of two orientations.

In the case of B28, the binding signal was 9.49 ln median PBM intensity, better of two orientations.

Consider B29, for which the binding signal was 6.93 ln median PBM intensity, better of two orientations.

As to B30, the binding signal is 9.47 ln median PBM intensity, better of two orientations.

Turning to B31, the binding signal is 9.62 ln median PBM intensity, better of two orientations.

For the molecule B32, the binding signal was 6.82 ln median PBM intensity, better of two orientations.

For B33, the binding signal was 10 ln median PBM intensity, better of two orientations.

Regarding B34, the binding signal was 6.89 ln median PBM intensity, better of two orientations.

Take B35: the binding signal is 9.41 ln median PBM intensity, better of two orientations.

With B36, the binding signal was 9.85 ln median PBM intensity, better of two orientations.

Take B37: the binding signal was 6.9 ln median PBM intensity, better of two orientations.

For the molecule B38, the binding signal is 9.92 ln median PBM intensity, better of two orientations.

With B39, the binding signal is 6.92 ln median PBM intensity, better of two orientations.

Regarding B40, the binding signal is 9.82 ln median PBM intensity, better of two orientations.

For the molecule B41, the binding signal is 6.62 ln median PBM intensity, better of two orientations.

As to B42, the binding signal was 9.96 ln median PBM intensity, better of two orientations.
